Measured values as given in patent US20060019893.

Target: human FX, P00742
Sequence (P00742 whole entry, looked up): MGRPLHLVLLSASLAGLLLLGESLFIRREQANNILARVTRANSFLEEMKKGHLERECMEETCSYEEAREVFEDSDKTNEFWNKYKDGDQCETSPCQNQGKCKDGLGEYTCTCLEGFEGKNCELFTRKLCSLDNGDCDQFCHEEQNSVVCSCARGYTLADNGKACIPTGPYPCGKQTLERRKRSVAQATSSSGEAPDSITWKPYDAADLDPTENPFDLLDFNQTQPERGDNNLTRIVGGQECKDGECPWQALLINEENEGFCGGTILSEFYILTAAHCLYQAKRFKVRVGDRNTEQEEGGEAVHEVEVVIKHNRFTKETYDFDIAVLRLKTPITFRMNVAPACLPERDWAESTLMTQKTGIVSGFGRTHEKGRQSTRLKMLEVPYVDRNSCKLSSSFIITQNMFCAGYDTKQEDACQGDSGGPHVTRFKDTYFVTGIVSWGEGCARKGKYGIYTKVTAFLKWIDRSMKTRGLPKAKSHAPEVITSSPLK

B1: wildtype FVIIa (protein)
chain 1: ANAFLEELRPGSLERECKEEQCSFEEAREIFKDAERTKLFWISYSDGDQCASSPCQNGGSCKDQLQSYICFCLPAFEGRNCETHKDDQLICVNENGGCEQYCSDHTGTKRSCRCHEGYSLLADGVSCTPTVEYPCGKIPILEKRNASKPQGR
chain 2: IVGGKVCPKGECPWQVLLLVNGAQLCGGTLINTIWVVSAAHCFDKIKNWRNLIAVLGEHDLSEHDGDEQSRRVAQVIIPSTYVPGTTNHDIALLRLHQPVVLTDHVVPLCLPERTFSERTLAFVRFSLVSGWGQLLDRGATALELMVLNVPRLMTQDCLQQSRKVGDSPNITEYMFCAGYSDGSKDSCKGDSGGPHATHYRGTWYLTGIVSWGQGCATVGHFGVYTRVSQYIEWLQKLMRSEPRPGVLLRAPFP
  Km, FX activation by relipidated TF•FVIIa (0.4 nM relipidated TF, 1 nM FVIIa): 0.13 µM
  Vmax, FX activation by relipidated TF•FVIIa (0.4 nM relipidated TF, 1 nM FVIIa): 600 mOD405/min
  Vmax/Km, FX activation by relipidated TF•FVIIa (mOD405/min/nM): 4.6
